According to patent US12122830 (ABL BIO, dated 2024):

What was measured:
[1] = target: T1, human ROR1 expressed on the cell surface (human, UniProt Q01973 30-937); test: flow cytometry on HCT116 cells (colon cancer), C2E3 IgG at 10 µg/mL, MFI of anti-ROR1 / MFI of 2nd Ab
T1 construct: whole, on cells; On JeKo-1 and Mino cells and other cancer cell lines (endogenous) and on transfected CHO and MC38 cells; also called cell surface-expressed ROR1; CHO-human ROR1
Procedure: (§1) For the cell lines, the binding to ROR1 was analyzed with FACS (FACSCalibur, BD Biosciences) by using the anti-ROR1 antibody of the present invention.
(§2) Specifically, after disassociating each cell line and washing in PBS, the number of cells was counted and set as 2 ×10^5 cells/200 µl PBS, and then the clone C2E3 among ROR1 monoclonal antibodies prepared in Example 3 was treated in 10 µg/mL, and it was reacted at 4° C. for 1 hour. After reaction, cells were washed in PBS, and then the FITC-labeled constant region (Fc)-specific antibody (Goat anti-human IgG FITC conjugate, Fc specific, Sigma, F9512, concentration: 2.0 mg/ml) was suspended in 2 µl/1 ×10^5 cells/200 µl PBS, and it was reacted at 4° C. for 1 hour. After reaction, cells were washed in PBS, it was analyzed using a FACSCalibur device. The negative control group was treated only with the FITC-labeled constant region (Fc)-specific antibody. To compare the expression degrees of ROR1 among the cancer cell lines, the value of the result for the peak shift in the experimental group treated with the ROR1 monoclonal antibody (C2E3) of the present invention was divided by the result for the peak shift in the control group (Mean Fluorescence Intensity Ratio MFI Ratio: MFI of anti-ROR1/MFI of 2nd Ab).

[2] = target: T1, human ROR1 expressed on the cell surface; test: flow cytometry on AGS cells (gastric cancer), C2E3 IgG at 10 µg/mL, MFI of anti-ROR1 / MFI of 2nd Ab
Procedure: as §1, §2

[3] = target: T2, recombinant ROR1-His (Sino Biological, 13968-H08H) (human, UniProt Q01973 30-406); test: BLI (Octet), ROR1-His loaded on biosensor, IgG in solution, 1:1 fitting
T2 construct: extracellular domain; Bought; also called human ROR1 antigen; not shown: His tag
Procedure: A 96 well black microplate (greiner bio one) in a biosensor tray case was installed, and 200 µl of 10×KB or D.W was put in 8 wells each. 8 sensors, Anti Penta His biosensors or AR2G biosensors (ForteBio, USA), were placed for 10 min for hydration. 600 µl of Analytic samples were diluted 2 folds or 3 folds to desired concentrations. It was diluted using 1×KB or 10×KB to reach a concentration of 30~0.021 nM. For antigen fixation, 1 µg/mL of a recombinant ROR1-His (Sino Biological, 13968-H08H) was diluted with 10×KB or Sodium Acetate pH5 buffer. For fixation, threshold was set to be 0.3 nmat the loading step. The experiment was performed for 3 min~10 min of association and for 20 min of dissociation. The prepared buffer was put into a new 96 well black microplate in accordance with octet program template in order. 10×KB or D.W 200 µl used as Baseline1 was put. 200 µl of the antigen ROR1-His protein (1 µg/mL) was loaded. 10×KB or D.W 200 µl used as Baseline2 was put. 200 µl of 10×KB buffer or 1×KB corresponding the diluted antibody in 30~0.021 nM, Reference blank was put into each well. The temperature of the experimental plate was fixed at 30° C. After placing all samples, the device was activated. After the experiment was finished, the result was uploaded on Octet Analysis 9.0 software, and then KD value was calculated using 1:1 fitting, and the result was described in the following Table 6. […]

[4] = target: T1, human ROR1 expressed on the cell surface; test: flow cytometry on JeKo-1 cells (MCL), C2E3 IgG at 10 µg/mL, MFI of anti-ROR1 / MFI of 2nd Ab
Procedure: as §1, §2

[5] = target: T1, human ROR1 expressed on the cell surface; test: flow cytometry on Calu-6 cells (lung cancer), C2E3 IgG at 10 µg/mL, MFI of anti-ROR1 / MFI of 2nd Ab
Procedure: as §1, §2

[6] = target: T1, human ROR1 expressed on the cell surface; test: flow cytometry on A549 cells (lung cancer), C2E3 IgG at 10 µg/mL, MFI of anti-ROR1 / MFI of 2nd Ab
Procedure: as §1, §2

[7] = target: T1, human ROR1 expressed on the cell surface; test: flow cytometry on MDA-MB-468 cells (breast cancer), C2E3 IgG at 10 µg/mL, MFI of anti-ROR1 / MFI of 2nd Ab
Procedure: as §1, §2

[8] = target: T1, human ROR1 expressed on the cell surface; test: flow cytometry on HCC1937 cells (breast cancer), C2E3 IgG at 10 µg/mL, MFI of anti-ROR1 / MFI of 2nd Ab
Procedure: as §1, §2

T1 sequence (Q01973 30-937): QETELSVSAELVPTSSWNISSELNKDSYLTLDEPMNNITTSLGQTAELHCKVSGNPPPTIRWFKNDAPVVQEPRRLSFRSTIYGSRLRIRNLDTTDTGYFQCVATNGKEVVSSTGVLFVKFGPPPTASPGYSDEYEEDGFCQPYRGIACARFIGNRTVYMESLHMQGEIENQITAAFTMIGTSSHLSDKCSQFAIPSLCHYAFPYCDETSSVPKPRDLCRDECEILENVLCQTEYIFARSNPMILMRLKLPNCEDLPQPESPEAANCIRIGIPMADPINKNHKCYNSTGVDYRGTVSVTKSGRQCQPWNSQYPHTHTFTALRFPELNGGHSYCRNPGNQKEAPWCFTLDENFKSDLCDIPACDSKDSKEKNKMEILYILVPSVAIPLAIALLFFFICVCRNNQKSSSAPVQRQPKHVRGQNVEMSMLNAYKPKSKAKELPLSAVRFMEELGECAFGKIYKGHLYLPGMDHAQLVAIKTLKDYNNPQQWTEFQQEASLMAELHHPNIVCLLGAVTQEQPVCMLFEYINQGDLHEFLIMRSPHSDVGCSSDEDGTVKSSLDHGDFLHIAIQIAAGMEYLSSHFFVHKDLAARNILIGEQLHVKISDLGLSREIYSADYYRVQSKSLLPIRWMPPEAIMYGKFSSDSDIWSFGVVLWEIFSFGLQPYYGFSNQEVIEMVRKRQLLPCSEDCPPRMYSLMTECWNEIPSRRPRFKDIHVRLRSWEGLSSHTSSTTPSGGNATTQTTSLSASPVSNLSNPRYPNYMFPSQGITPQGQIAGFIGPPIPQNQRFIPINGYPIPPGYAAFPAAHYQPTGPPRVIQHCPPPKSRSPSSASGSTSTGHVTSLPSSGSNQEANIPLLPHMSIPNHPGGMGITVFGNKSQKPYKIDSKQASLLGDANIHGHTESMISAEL
T2 sequence (Q01973 30-406): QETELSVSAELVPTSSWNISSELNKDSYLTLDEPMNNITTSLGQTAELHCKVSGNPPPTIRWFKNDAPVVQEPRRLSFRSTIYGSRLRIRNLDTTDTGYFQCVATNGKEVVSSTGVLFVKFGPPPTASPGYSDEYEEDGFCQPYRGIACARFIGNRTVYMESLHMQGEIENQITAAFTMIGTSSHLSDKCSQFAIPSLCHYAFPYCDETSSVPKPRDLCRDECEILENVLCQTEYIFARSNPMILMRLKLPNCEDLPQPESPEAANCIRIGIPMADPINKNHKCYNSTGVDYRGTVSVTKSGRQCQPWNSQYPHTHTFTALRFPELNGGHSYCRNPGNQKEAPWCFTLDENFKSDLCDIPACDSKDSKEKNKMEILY

B1: C2E3 anti-ROR1 IgG antibody (antibody, V domains shown)
VH: EVQLLESGGGLVQPGGSLRLSCAASGFTFSNYAMSWVRQAPGKGLEWVSSISHNSGSTYYADSVKGRFTISRDNSKNTLYLQMNSLRAEDTAVYYCAKFISARKSLGRSYSNGMDVWGQGTLVTVSS
VL: QSVLTQPPSASGTPGQRVTISCTGSSSNIGSNDVTWYQQLPGTAPKLLIYADSKRPSGVPDRFSGSKSGTSASLAISGLRSEDEADYYCGTWDYSLSGYVFGGGTKLTVLG
Mean Fold Ratio [1]: 18
Mean Fold Ratio [2]: 12.3
Kd [3]: 0.424 nM
koff [3]: 0.00231 s⁻¹
Mean Fold Ratio [4]: 4
Mean Fold Ratio [5]: 3.3
Mean Fold Ratio [6]: 6
Mean Fold Ratio [7]: 6.4
Mean Fold Ratio [8]: 2.7
